Assay results reported in the supplement of paper PMC9170038.

Test system: MS2 coat protein
Assay: apparent KD of MS2 coat protein; higher = weaker reporter binding
Conditions: Eterna round: R107; input ligand: arginine 13.2 mM
Outline: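 Binding of SNAP-549-labelled MS2 coat protein was measured on designed RNA switches transcribed on-chip from Illumina sequencing clusters. The protein rose in twofold steps from 0.7 or 1.5 nM to 3 µM, with 0.8–1.5 h per step early on and 10–20 min per step later, in 100 mM Tris-HCl pH 7.5, 80 mM KCl, 4 mM MgCl2, without or with constant ligand. Each design's apparent KD is the median of fits to its normalised cluster binding curves.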

Row | Sequence | apparent KD of MS2 coat protein [nM]
1 | AAUCAUGGAAACAUGACAUGAGGGUUACUCCGAGGACCGGUACGGCCGCCACUCGCGAGGAGGCGGACAUGAGGAUCACCCAUGU [#04 Tryptophan A Same State] | 32.4
2 | ACAUGAGGAUCACCCAUGUUUGAUGUUCCUCGAGGACCGGUACGGCCGCCACUCGAACGAGUGGCGCGCGCGCGCGCGCGCGCGC [aQa] | 10.9
3 | AGCGACAUGCGUGAUACCAGCUACAUGAGGAUCACCCAUGUACGUCAGAAAUGACUGUGUAGCCCUUGGCAGCAUAGUGCAUGUC [Exclusion - Theophylline B (Freestyle 20)] | 34.6
4 | CACUACAUGAGGAUCACCCAUGUCUUCCGACGAGGACCGGUACGGCCGCCACUCGAACCUCCAACUAAUACCUCAACCGUCUGAU [theeternabot_sameState_MS2_Trp_A_25] | 36.5
5 | GCACCAGGUACGGAUACCAGACGUUGCCAAACAGGGUGACAUGAGGAUCACCCAUGUACUGUCCCUUGGCAGCCGUACCUGGUGC [EThB NP+V+V2 #4 +-Same Structure] | 20.2
6 | GCGGAAUAAUCGGCCGCCACUAUGAUAUAGGAAACUAUAACAUGAGGAUCACCCAUGUAUCCUCAUAGGACCGGGAUUAAAACGC [TrypB - CS] | 39.7
7 | CGAAAGCAGUGAUCCAGCUUUCGCCUGGAAGGAGCGAGCGAAAGCUCAGGUAGGUCGCCAGAAACAUGAGGAUCACCCAUGUAAU [(A)''-(M)'-(A)'-(Arg1)-(Arg2)-(M1)-(M2)_Design8] | 36.6
8 | UCGCUCUGGGUGAAUCCCAGAGAUAUGGAAGGAGCGGACGAAAGUCCAGGUAGGUCGCCAUCGAACAUGAGGAUCACCCAUGUAC [Same State - Arginine A (Freestyle 27)] | 62.1
9 | AGGAAACAACAUGAGGAUCACCCAUGUGAUACCAGUAUCAAAAGAUACCCUUGGCAGCACACAUGACAUGAGGAUCACCCAUGUA [AstrosSSTheA#2] | 33.2
10 | AAUGUGAUAGUCGUACUCUCACACUGAGAAGGAGCGCGAAAGUUCGCAGGUAGGUCGCUCAGUUAUACAUGAGGAUCACCCAUGU [Edgeised] | 21.9
11 | UGGAGAUAGACGGCCGCCACUAACAUGAGGAUCACCCAUGUCGUCACGAAUGGAUGGCCCUAGAAUAGGACCGGGUCCGGAUUCA [theeternabot_exclusion_MS2_Trp_B_48] | 23.7
12 | GGGCGCUAUCCCGCGAGGGAUAGCGUUCGACGAGGACCGGUACGGCCGCCACUCGAACGAGUGGGUACAUGAGGAUCACCCAUGU [Gaa] | 26.3
13 | GUAAUUUUAAGAAGGAGCGUCGAAAAUGGGUAAACAUGAGGAUCACCCAUGUAAAGGGAACGACAGGUAGGUCGCUUAGGAUUAC [AstromonsSSArgB#23] | 113
14 | AAACAUGAGGCGGCCGCCACUGUAUGAACAUGAGGAUCACCCAUGUAUGUACCCAUGUGUGUACACAGGACCGGGCCAUGUGGAU [Exclusion Tryptophan B 4] | 24.8
15 | GCGGAAUAAUCGGCCGCCACUAUGAGACAGGAAACUGUCACAUGAGGAUCACCCAUGUAUCCUCAUAGGACCGGGAUUAAAACGC [Melting point difference] | 76.8
16 | CUAAGAGUAGGAAGGAGCGACAUGAGGAUCACCCAUGUGGCUCUCAUGGCCCGGGUCUUAUGUCAGGUAGGUCGCCUACUGUUUA [Solave] | 13.6
17 | UAUACAUGAGGAUCACCCAUGUGCCAUGAUACCAGACAUGAAAAUGUCCCUUGGCAGCAUGGGAGAUGUAUAGCGGGAAACCCGA [Turany] | 22.4
18 | GAUUUAACAAAAGUUGGAUCAGUGGGUGAACGAGGACCGGUACGGCCGCCACUCGGACAUGAGGAUCACCCAUGUCCAUGUGAAA [AstrosExyTryA#19] | 47.2
19 | UGAUAUGUGGGAAGGAGCGCAUACUUCACAUGAGGAUCACCCAUGUCAAGACGUGAGUCAGUGCAGGUAGGUCGCCUAGUUAUGA [Same State - Arginine B (Freestyle 19)] | 36.8

Row | Sequence | apparent KD of MS2 coat protein [nM]
20 | ACAUGAGGAUCACCCAUGUAGCCUAGGGAAGGAGCGGCAUAAAAGCCAGGUAGGUCGCCCGCAUGAGGAUCACCCAUGUCAAGGA [Same State Arginine A GF7] | 42.8
21 | UUAUCUAUAUUCGAUACCAGUACCCUGGCCGCAAAUCCUAACAUGAGGAUCACCCAUGUGUACCCUUGGCAGCGGGUAUGGGUUU [XTheo B #29] | 21.5
22 | ACGAUAGGACACGAGGAUCACCCGUGUGAUACCAGCCUGGAAACAGGCCCUUGGCAGCACAAAUACUCCAAUAACCUAUCGAAUA [TheoAX 10 #MicroSwitchBubble #AlternativeMS2] | 56.5
23 | AAUAUUAACUGAAGGAGCGUGUUAUGUACAUGAGGAUCACCCAUGUAUAGGGUAAUACUAACACAGGUAGGUCGCAGAAUAAUUA [JR_SSArginiB_Sub010] | 20.2
24 | UGUAUGGACUGAAGGAGCGGAAGAUACCAUGAGGAUCACCCAUGGAAUAAGGCGAAAGCCUUCCAGGUAGGUCGCAGUCCAUACU | 16.1
25 | GAGGUCCUGAGAGAUACCAGUGAGGCCACAUGAGGAUCACCCAUGUCCCUCACUCCGGCCCACCCUUGGCAGCUCGGAAGGUAAA [Exclusion Theophylline B GF 23] | 14.9
26 | AUACAUGAGGAUCACCCAUGUCAUUCAGAAGGAGCGUCAUUUUAGACAGGUAGGUCGCUGAUAGUAUUUUUAUACUUUAUGUUUA [JR_SSArginiA_Sub015] | 19.5
27 | AAGGGUGAGUCUCUAAUCCGUUUGACGGAUACCAGCGAGAGAUAUCGCCCUUGGCAGCCGACGACAUGAGGAUCACCCAUGUAAA [Exclusion - Theophylline A] | 17
28 | AAAUGAAGGCGAAGGAGCGGGAACAUGAGGAUCACCCAUGUGUAUGUAUGUAGUCAUGUAUCUCAGGUAGGUCGCGCUGUUACAU [Exclusion Arginine B 2] | 80
29 | UAUCCACAUGAGGAUCACCCAUGUUAGGAAGGAGCGGUGAAUGAACCAGGUAGGUCGCCUAGCUGAGGACCAUCAAUGGAUUCGU [Exclusion - Arginine A (Freestyle 14)] | 18.1
30 | UGAUGGUGCGGAAGGAGCGUGUAAGAACAAGAACAUGAGGAUCACCCAUGUAUUAAUUUAACACAGGUAGGUCGCCGUGUUAUUG [11.K] | 29.6
31 | UAUCGUCAGACGGCCGCCACUAGAACAUGAGGAUCACCCAUGUAGGCGGCCGAUUCCUCAUGAACUAGGACCGGGUCUGACGAAU [(Trp1)-(Ms2)-(T)'-(M)'-(Trp2)_Design12] | 8.18
32 | CAGAGACAUGAGGAUCACCCAUGUUGAGAUACCAGCUUGGUAUCGAGCCCUUGGCAGCUCGCCCAUCGUCUAUAUCAGCCUGAGC [theeternabot_sameState_MS2_Theo_A_40] | 17
33 | UCGACAAGAACAAUAAACAGCACUUGAGAAGGAGCGCGGAAAUCCGCAGGUAGGUCGCUCAUGUGUACAUGAGGAUCACCCAUGU [Inveonxeed] | 32.6
34 | AGACAUGAGGAUCACCCAUGUAGCAUGGAUACCAGAUGUAGAUUAGUCCCUUGGCAGCUGUGGUAAAGUGAUGCAUUGCUCCUAG [Exclusion - Theophylline A (Freestyle 3)] | 35.2
35 | AUUACAUGGAUUACAACUAAAUCAACUGAAGGAGCGUGAAGGAUCACAGGUAGGUCGCAGUACAUGAGGAUCACCCAUGUUAUAA [JR_Nu_SSArginiA_Sub021] | 34.4
36 | AUGCCUAGUGGAAGGAGCGAGGGUCUUCUCAACAUGAGGAUCACCCAUGUUCUUUUAUACCCUCAGGUAGGUCGCCAUUGGGACA [Anenre] | 27.7
37 | ACCUGUACGAAAAGUGCAGGACACGGAUAACGAGGACCGGUACGGCCGCCACUCGGAAUAACCUGAGGAUCACCCUGGUACCGUG [TrypAS 8 #AlternativeMS2 #Zipper #StaticStem] | 25.8
38 | GUUGGAUGCUCGGCCGCCACUGAGAGAGUCAUGUGAACAUGAGGAUCACCCAUGUAAUAUAUAUACAGGACCGGGAGUGUUGUAA [4.J] | 19.7

Same assay, conditions: Eterna round: R107; input ligand: none

Row | Sequence | apparent KD of MS2 coat protein [nM]
39 | AAUCAUGGAAACAUGACAUGAGGGUUACUCCGAGGACCGGUACGGCCGCCACUCGCGAGGAGGCGGACAUGAGGAUCACCCAUGU [#04 Tryptophan A Same State] | 392
40 | ACAUGAGGAUCACCCAUGUUUGAUGUUCCUCGAGGACCGGUACGGCCGCCACUCGAACGAGUGGCGCGCGCGCGCGCGCGCGCGC [aQa] | 12.5
41 | CGAAAGCAGUGAUCCAGCUUUCGCCUGGAAGGAGCGAGCGAAAGCUCAGGUAGGUCGCCAGAAACAUGAGGAUCACCCAUGUAAU [(A)''-(M)'-(A)'-(Arg1)-(Arg2)-(M1)-(M2)_Design8] | 65.4
